Km and kcat data for 1 molecule are collected here from patent US6428997B1, “Aminopeptidase derived from Bacillus licheniformis and process for preparation of natural type proteins” (LG Chemical Ltd., priority 1997, dated 2002).

In data set [1] the test system is leucyl oligopeptide of SEQ. ID. NO: 2. Description: Kinetic parameters of aminopeptidase, leucyl oligopeptide substrate. The data set is classed as biochemical. The following applies: 37° C. The text has this: (§1) In order to compare substrate specificity of aminopeptidase of this invention, 2 kinds of substrate were used. In detail, one was synthetic substrates of p-nitroanilide derivative and purchased from Sigma, USA and the other was oligopeptide such as methionyl oligopeptide of SEQ. ID. NO: 1 which have amino acid sequence similar to N-terminus of methionyl HGH and leucyl oligopeptide of SEQ. ID. NO: 2. The oligopeptides of this invention were synthesized.
(§2) In addition oligopeptide was also used as substrate to perform enzyme reaction by using substrate of known concentration and aminopeptidase in buffer containing 0.1M Tris-Cl, 0.1M NaCl to make 500 μl reaction volume. The enzyme reaction was performed at 37° C. and after 5 and 10 min 250 μl of reaction mixture was adopted and added 70% acetic acid to stop the reaction. The reaction mixture was analyzed by performing HPLC chromatography.
(§3) In reaction condition mentioned above, initial velocity of enzyme reaction was measured with varying the substrate concentration. Lineweaver-Burk plot was used to determine Km value and Maximum reaction velocity of aminopeptidase from Bacillus licheniformis. In addition kcat and kcat/Km was determined by using Km value and maximum reaction velocity described above.

Data set [2] has as its system methionyl oligopeptide of SEQ. ID. NO: 1. Description: Kinetic parameters of aminopeptidase, methionyl oligopeptide substrate. The data set is classed as biochemical. The note with it: 37° C.
Excerpt: as §1, §2, §3

B1: Aeromonas proteolytica aminopeptidase: Aeromonas proteolytica (Vibrio prozeolytica) aminopeptidase (Korean Patent Publication NO. 94-14804), comparison enzyme (protein)
chain: MPPITQQATVTAWLPQVDASQITGTISSLESFTNRFYTTTSGAQASDWIASEWQALSASLPNASVKQVSHSGYNQKSVVMTITGSEAPDEWIVIGGHLDSTIGSHTNEQSVAPGADDDASGIAAVTEVIRVLSENNFQPKRSIAFMAYAAEEVGLRGSQDLANQYKSEGKNVVSALQLDMTNYKGSAQDVVFITDYTDSNFTQYLTQLMDEYLPSLTYGFDTCGYACSDHASWHNAGYPAAMPFESKFNDYNPRIHTTQDTLANSDPTGSHAKKFTQLGLAYAIEMGSATGDTPTPGNQ
As for B1, the Km in data set [1] came out at 336 µM; in data set [2], 956 µM. For the same molecule, the kcat in data set [1] was found to be 70.29 s⁻¹; in data set [2], 3.23 s⁻¹.
